In the supplement of paper PMC9233669:
Variants at the floor of the assay were thinned out.

Columns and labels:
[1] = system: biotinyl-Phe-oxazolone; assay: self-aminoacylation, catalytic enhancement (BFO) (fold over background); higher = more active; k-Seq, kA / k0A0; sequences stand for … in GGGAAUGGAUCCACAUCUACGAAUUC…UUCACUGCAGACUUGACGAAGCUG
Summary of the method: (§1)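 Each biotinyl-aminoacyl-oxazolone, at 2–1250 μM, was incubated with mutagenized RNA pools (0.43 μM) carrying a 21-nt variable region. The 50 μL reactions contained HEPES/NaCl/KCl/MgCl2/CaCl2 buffer with 5% acetonitrile at pH 6.9–7.0 and ran for 90 minutes at room temperature. After streptavidin capture, RNA was measured by qPCR in triplicate and by Illumina sequencing, and catalytic enhancement was calculated as median kA over the uncatalyzed rate from a pseudo-first-order fit of per-sequence fraction reacted.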

[2] = system: biotinyl-Ile-oxazolone; assay: self-aminoacylation, catalytic enhancement (BIO) (fold over background); higher = more active; k-Seq, kA / k0A0; sequences stand for … in GGGAAUGGAUCCACAUCUACGAAUUC…UUCACUGCAGACUUGACGAAGCUG
Summary of the method: as §1

[3] = system: biotinyl-Met-oxazolone; assay: self-aminoacylation, catalytic enhancement (BMO) (fold over background); higher = more active; k-Seq, kA / k0A0; sequences stand for … in GGGAAUGGAUCCACAUCUACGAAUUC…UUCACUGCAGACUUGACGAAGCUG
Summary of the method: as §1

[4] = system: biotinyl-Val-oxazolone; assay: self-aminoacylation, catalytic enhancement (BVO) (fold over background); higher = more active; k-Seq, kA / k0A0; sequences stand for … in GGGAAUGGAUCCACAUCUACGAAUUC…UUCACUGCAGACUUGACGAAGCUG
Summary of the method: as §1

[5] = system: biotinyl-Leu-oxazolone; assay: self-aminoacylation, catalytic enhancement (BLO) (fold over background); higher = more active; k-Seq, kA / k0A0; sequences stand for … in GGGAAUGGAUCCACAUCUACGAAUUC…UUCACUGCAGACUUGACGAAGCUG
Summary of the method: as §1

[6] = system: biotinyl-Trp-oxazolone; assay: self-aminoacylation, catalytic enhancement (BWO) (fold over background); higher = more active; k-Seq, kA / k0A0; sequences stand for … in GGGAAUGGAUCCACAUCUACGAAUUC…UUCACUGCAGACUUGACGAAGCUG
Summary of the method: as §1

| Sequence | self-aminoacylation [1] | self-aminoacylation [2] | self-aminoacylation [3] | self-aminoacylation [4] | self-aminoacylation [5] | self-aminoacylation [6] |
| --- | --- | --- | --- | --- | --- | --- |
| CCACACUUAAUGCAAUCGGUC [Fam1B.1 aminoacylation ribozyme variant] | 0.949 | 0.855 | 0.752 | 0.763 | 0.693 | 0.642 |
| CCACACCUCAAGCGAUCGGUC [Fam1B.1 aminoacylation ribozyme variant] | 1.09 | 1.31 | 1.33 | 1.73 | 1.69 | 1.5 |
| CUACAUCAAACAAUCGCUCUG [Fam1A.1 aminoacylation ribozyme variant] | 0.457 | 0.803 | 0.777 | 0.878 | 0.89 | 0.67 |
| CUACUUCAAACAACGGGUCUG [Fam1A.1 aminoacylation ribozyme variant] | 0.618 | 0.937 | 0.716 | 0.904 | 0.627 | 0.697 |
| CCACACUUCAUGCAAUCGGUA [Fam1B.1 aminoacylation ribozyme variant] | 0.533 | 0.681 | 0.769 | 0.733 | 0.811 | 0.458 |
| AUUACCCCGGUCAUCGCGUGA [Fam2.1 aminoacylation ribozyme variant] | 174 | 11.2 | 23.7 | 11.8 | 24.3 | 23.8 |
| CUACUUCAAUCACUCGGUCUG [Fam1A.1 aminoacylation ribozyme variant] | 0.649 | 0.866 | 0.68 | 0.835 | 0.746 | 0.688 |
| CUACUUCAGCCAAUCGGUCUG [Fam1A.1 aminoacylation ribozyme variant] | 0.64 | 0.691 | 0.713 | 0.673 | 0.842 | 0.425 |
| CUACUUCAAACAAAAGGUCUG [Fam1A.1 aminoacylation ribozyme variant] | 0.784 | 0.822 | 0.624 | 0.946 | 0.618 | 0.592 |
| AUUCACCCAUGUCAUCGGGUG [Fam2.2 aminoacylation ribozyme variant] | 46.4 | 3.72 | 6.58 | 3.15 | 7.33 | 5.22 |
| CCUCACUUCAGGCAAUCGGUC [Fam1B.1 aminoacylation ribozyme variant] | 1.59 | 0.856 | 0.951 | 0.932 | 0.947 | 0.952 |
| AUUACGCUGGUCUUCGAGUGA [Fam2.1 aminoacylation ribozyme variant] | 12.9 | 3.35 | 4.27 | 3.32 | 5.46 | 5.95 |
| AUUCACCUCUGUCAUCGGGUG [Fam2.2 aminoacylation ribozyme variant] | 54.5 | 3.8 | 7.32 | 4.06 | 10.1 | 7.31 |
| AUUACCCUGUUCUUCGAGUGA [Fam2.1 aminoacylation ribozyme variant] | 23.3 | 3.05 | 5.6 | 3.41 | 5.58 | 7.83 |
| AUUACCAUGGUCGUCGAGUGA [Fam2.1 aminoacylation ribozyme variant] | 0.902 | 1.21 | 1.3 | 1.08 | 1.25 | 1.48 |
| AAGCUUGCUAAAAGUCGCAAG [Fam3.1 aminoacylation ribozyme variant] | 5.12 | 2.16 | 3.31 | 1.79 | 3.1 | 3.43 |
| AGGUUUCCUAAUAGUCGCAAG [Fam3.1 aminoacylation ribozyme variant] | 2.49 | 1.65 | 1.6 | 1.44 | 1.61 | 1.54 |
| ACACACUUCAAGCAAUCGGUU [Fam1B.1 aminoacylation ribozyme variant] | 4.53 | 2.21 | 2.44 | 2.05 | 2.26 | 4.24 |
| UUUACCCGGGUCAUCGAGUGA [Fam2.1 aminoacylation ribozyme variant] | 43.1 | 3.4 | 7.15 | 4.02 | 7.17 | 9.17 |

| Sequence | self-aminoacylation [1] | self-aminoacylation [2] | self-aminoacylation [3] | self-aminoacylation [4] | self-aminoacylation [5] | self-aminoacylation [6] |
| --- | --- | --- | --- | --- | --- | --- |
| AAGUUUGCCAAUGGUCGCAAG [Fam3.1 aminoacylation ribozyme variant] | 0.499 | 0.987 | 1.02 | 0.852 | 1 | 1.01 |
| AUUACUCUGGUCAUCGAGUGC [Fam2.1 aminoacylation ribozyme variant] | 0.969 | 1.1 | 1.19 | 1.05 | 1.42 | 1.32 |
| AUUCACCUAGGUCAUGGGGUU [Fam2.2 aminoacylation ribozyme variant] | 0.983 | 1.5 | 1.68 | 1.58 | 1.52 | 1.51 |
| AUACUCCUAGGUCAUCGGGUG [Fam2.2 aminoacylation ribozyme variant] | 27.5 | 2.97 | 3.69 | 2.98 | 5.38 | 3.91 |
| ACUACCCUGGUCAUCGAGUUA [Fam2.1 aminoacylation ribozyme variant] | 8.46 | 2.05 | 5.07 | 2.38 | 5.11 | 3.55 |
| CUACUUCAAACAAUCCGGCUG [Fam1A.1 aminoacylation ribozyme variant] | 1.01 | 1.5 | 1.4 | 1.78 | 1.44 | 0.952 |
| AUUACCCUGCUCAGCGAGUGA [Fam2.1 aminoacylation ribozyme variant] | 18.5 | 2.24 | 3.61 | 2.76 | 3.79 | 4.77 |
| CCACACUUCAAGAAAUCGGUG [Fam1B.1 aminoacylation ribozyme variant] | 55.3 | 4.82 | 6.53 | 3.53 | 10.6 | 8.37 |
| AUUCACCUAGGUCAUAGAGUG [Fam2.2 aminoacylation ribozyme variant] | 10.1 | 2.23 | 2.98 | 2.08 | 3.92 | 2.12 |
| CCACUUUUCAAGCAAUCGGUC [Fam1B.1 aminoacylation ribozyme variant] | 1.58 | 1.25 | 1.1 | 1.32 | 1.1 | 1.06 |
| AUUCACCCAGGUCAUUGGGUG [Fam2.2 aminoacylation ribozyme variant] | 23.8 | 2.31 | 3.36 | 2.52 | 4.11 | 3.71 |
| AAGUUUCCUAAUAGUCGCAAA [Fam3.1 aminoacylation ribozyme variant] | 3.59 | 1.99 | 1.74 | 1.43 | 1.99 | 1.96 |
| AAGUUAGCUAAUAAUCGCAAG [Fam3.1 aminoacylation ribozyme variant] | 2 | 1.77 | 1.3 | 1.26 | 1.38 | 1.12 |
| AGUCACCUCGGUCAUCGGGUG [Fam2.2 aminoacylation ribozyme variant] | 44.4 | 4.47 | 6.27 | 4.18 | 6.23 | 7.18 |
| CUACUUCAUAAAAUCGGUCUG [Fam1A.1 aminoacylation ribozyme variant] | 0.567 | 0.656 | 0.699 | 0.641 | 0.622 | 0.389 |
| AUUCACCUACGUCAUCGGGCG [Fam2.2 aminoacylation ribozyme variant] | 16.3 | 2.62 | 3.42 | 2.97 | 3.26 | 2.75 |
| AUGUUUGCUAAUAGUCGCGAG [Fam3.1 aminoacylation ribozyme variant] | 3.75 | 1.65 | 1.57 | 1.65 | 1.48 | 2.18 |
| AAGUUUGCUAACAGUCGCCAG [Fam3.1 aminoacylation ribozyme variant] | 1.8 | 1.61 | 1.45 | 1.33 | 1.17 | 2.07 |
